According to the supplement of paper PMC12764529:
± gives the half width of the 95% confidence interval.

Assay: folding stability dG unfold (combined trypsin and chymotrypsin); higher = more stable
Outline: (§1)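 Mini-proteins designed to be under 80 residues and free of cysteine were carried in a PA-tagged cDNA display construct and digested with trypsin and with chymotrypsin. Each protease was applied at 11 threefold-diluted concentrations, alongside a no-protease condition, before sequencing. K50 came from Bayesian fitting of the sequencing counts, and unfolding free energy was obtained by comparing it with a sequence-predicted unfolded-state K50 and a shared folded-state K50, for each protease separately or for both together. Designs were retained only if their AlphaFold2 dimer inter-PAE exceeded 15.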

| Sequence | folding stability dG unfold |
| --- | --- |
| SAGGSAGGSAGWFFVMDIKYEYRQTPDGKTEQEMSIEMKPIPPIPAEDLKEKLGLPPEDIASAGGSAGGSAG [r3_338_TrROS] | 1.94 ± 0.17 kcal/mol |
| SEITIYNKGKPPPEELLEALKKAPGFPPEDLRKNTKVEPNKDGPQITIPPEQAEQMSKRNPRIMEAIRELSA [r9_160_TrROS] | 1.44 ± 0.48 kcal/mol |
| SAGGSAGGSPVPVKVEKKPTKENKELIITYYPDGKVRVTTYTYDENGNKISEKEEIIPKSEVKLSAGGSAGG [r6_579_JUSTAS] | 1.37 ± 0.061 kcal/mol |
| SAGGSAMPDDPLVLRANIPFVVVGPDGRPRLFRREILVPFASEEEAERFRRELEALGAEVEPVARASAGGSA [r15_117_TrMRF] | 1.93 ± 0.12 kcal/mol |
| SAGSPPDDVREEETEEVVPSPDGSLTVTRTPVVRRPGEEEEVRTETTVYFPPSDETLTSESLTRFPGASAGG [r19_387_JUSTAS] | 0.695 ± 0.095 kcal/mol |
| SKKVKITEITFPEGATFDGKKVTVTIKIVDEETGTVTITEITVDKNGKVTIKEVTVKVDPKTGKIVEITPSA [r9_122_TrROS_Hall] | 1.8 ± 0.19 kcal/mol |
| SAGGSAGGSAGGSNPVDIVEILSYDPEKNTYTFLVKLPDGSTKTITVPGLSVEEIKKELSAGGSAGGSAGGS [r4_357_JUSTAS] | 2.86 ± 0.085 kcal/mol |
| SAGGSAGGSAGGMMVNLKVTREKLPNGKYRVTFTLPNGEEVVVEVESEEEAEAAAKEIAASAGGSAGGSAGG [r11_955_JUSTAS] | 3.95 ± 0.084 kcal/mol |
| SAGSSPEEIAERLREEAERTEKLPDGSEVRVSVSVDVEVLPNGTVRLTIPRSYPETGVVTTETVTIPVASAG [r5_397_JUSTAS] | -0.194 ± 0.16 kcal/mol |
| SAGLLEVLRKIAEELGWELTSVEVHELPDGSVVATGEFRKGDRTYRVDIRYDPETGRVEVRLEPVPVPESAG [r14_784_TrMRF] | > 6 kcal/mol |
| SMKIYKTKEEAEKAAKETGKKVIVIKKGMSLEELLELLKKLKGLKEGQKVILVIQNEDGETYVIVLEIKPSA [r9_314_TrROS_Hall] | 1.74 ± 0.17 kcal/mol |
| SAGGSAGGSMPTLRVKIEVTNPDGEKLELTITVPRDMTLEELKALAEELAKAGYEVRIVEVEPSAGGSAGGS [r12_804_TrROS_Hall] | 3.19 ± 0.17 kcal/mol |
| SAGGSAGGSAMKPGEVIEIEITDKETGKKIKAEIVLKDGKLYIKIYNENGELIAEIEIEIKDSAGGSAGGSA [r18_264_TrROS_Hall] | 3.42 ± 0.14 kcal/mol |
| SAGGSAGGSAGMVIEVGGKKVTIEKNEDGSLKITVTDKNGKKKEITIPGMSLEEILKALKSAGGSAGGSAGG [r11_934_TrROS_Hall] | 2.9 ± 0.081 kcal/mol |
| SAGGSAPLPPGAVVEIVEVRFDPETRRIEMVVKVYDANGELVATLRVELEFDPETNELTLRVELLPSAGGSA [r15_1028_TrROS_Hall] | 4.23 ± 0.14 kcal/mol |
| SAMDFPPGSTATIKVEVKNPDNTKTETYEIEVPVDPETGKAITLEDLKEALEKLGVNPENVKIVDIKVGSAG [r14_93_TrMRF] | 2.72 ± 0.27 kcal/mol |

Assay: folding stability dG unfold from trypsin proteolysis; higher = more stable
Outline: as §1

| Sequence | folding stability dG unfold |
| --- | --- |
| SAGGSAGGSAGKTYTFRVRIVDEETGEEKEIEVTAKSEEEAKKAAEELKKKYPNLKVELESAGGSAGGSAGG [r11_233_TrROS_Hall] | 2.98 ± 0.13 kcal/mol |
| SAGNIKISYDPDDGWLTITFPVAPGQEFSFKLNIMLPENGAKIKNVEVTGPLKDGQPVTITMKVTGIKPSAG [r5_737_TrROS] | 2.2 ± 0.13 kcal/mol |
| SAGGMKKEKVKITIVVPVEDAEKLREALEKLGFKVVEEKENEDGLLTLTVEVDGKKIEIKIVKKEELSAGGS [r16_170_TrROS_Hall] | 1.13 ± 0.088 kcal/mol |
| SAMIVVPATFDDRTFVLRIERLPDGSYLVDVEDPDVSREAVVEALRELLPEDAKIVLDPETNLVYVSFDSAG [r14_370_TrMRF] | 3.34 ± 0.11 kcal/mol |
| SAGMVKITVPSSVGPVDPSKALTFEKDDTRYILVPGEVAKEIEEKYPDLPIEIEPMSEEEAEKILKELSAGG [r19_271_JUSTAS] | -0.0536 ± 0.2 kcal/mol |
| SAGGSAGGSAGKWKTITILIPNMPVEEIADRIMDKFGPGIRITEITPNKPGWFWITIIVRSAGGSAGGSAGG [r11_580_TrROS] | 3.29 ± 0.075 kcal/mol |
| SAGGMKIEIVEIEREGNTITIKAKITLPDGTVIEITAKAEFVDGELKLEIKVEVRKLPPPPPPPPEESAGGS [r8_458_TrROS_Hall] | 2.87 ± 0.27 kcal/mol |
| SGLTNLRVEAELVPPGVLRVTFTEGGKPVYELTFTVVVPAPPVVEPVLLPNGVPALVVYDPATGKPVVYPSA [r9_343_TrMRF] | 2.17 ± 0.13 kcal/mol |
| SAGGSAIENQFLRITMYHGNKPHTWTFPIKKVDIDPEDGNIEVYFPPEFRELFGGPMRITDIEFPPSAGGSA [r15_710_TrROS] | 1.14 ± 0.019 kcal/mol |
| SAGGMEEIEVEFEFTLPDGRTLRLTVRVRRFDGGIVVEVDVGGEEEEEREFMEEVAREIAERIAEEESAGGS [r8_416_TrMRF] | 2.92 ± 0.07 kcal/mol |
| SAGNVTIRISFYPRKDGWFFRIKVHFDGKPRELMIPPDDSAEDLADELEKKLGADVTDIEVEWMPLEDGSAG [r5_181_TrROS] | 3.27 ± 0.1 kcal/mol |
| SAGGSPPFRIKIDEIEILPNGIIQVTFKIDNGWPMTILIQMDPDGKVTIEIQFPGNGQPFEFELPISAGGSA [r2_361_TrROS] | 2.56 ± 0.14 kcal/mol |
| SAGGSAGGSAGGMEFKPGQEIEIVLKDENGRLIVIKAKVKKVDGKLVIEIEEAYELDDLSAGGSAGGSAGGS [r10_744_TrROS_Hall] | 2.34 ± 0.12 kcal/mol |
| SAGGSEVVLEAEGVDPATGKPYTVRVVYDKETGVPVVEVRDADGTLLAVIPVPPDKALEALKELGVSAGGSA [r2_115_TrMRF] | 2.92 ± 0.08 kcal/mol |
| SAGGSAGGSSPVRMVATIPLPDGTTITVEAEIVRLPDGTILIKTPSGEIIEVPPDVPVEFFPESAGGSAGGS [r20_227_JUSTAS] | 1.78 ± 0.057 kcal/mol |
| SAGGSAGGSAGWFFVMDIKYEYRQTPDGKTEQEMSIEMKPIPPIPAEDLKEKLGLPPEDIASAGGSAGGSAG [r3_338_TrROS] | 0.937 ± 0.067 kcal/mol |

| Sequence | folding stability dG unfold |
| --- | --- |
| SEITIYNKGKPPPEELLEALKKAPGFPPEDLRKNTKVEPNKDGPQITIPPEQAEQMSKRNPRIMEAIRELSA [r9_160_TrROS] | 1.64 ± 0.098 kcal/mol |
| SAGGSAGGSPVPVKVEKKPTKENKELIITYYPDGKVRVTTYTYDENGNKISEKEEIIPKSEVKLSAGGSAGG [r6_579_JUSTAS] | 0.81 ± 0.032 kcal/mol |
| SAGGSAMPDDPLVLRANIPFVVVGPDGRPRLFRREILVPFASEEEAERFRRELEALGAEVEPVARASAGGSA [r15_117_TrMRF] | 1.62 ± 0.051 kcal/mol |
| SAGSPPDDVREEETEEVVPSPDGSLTVTRTPVVRRPGEEEEVRTETTVYFPPSDETLTSESLTRFPGASAGG [r19_387_JUSTAS] | 0.356 ± 0.049 kcal/mol |
| SKKVKITEITFPEGATFDGKKVTVTIKIVDEETGTVTITEITVDKNGKVTIKEVTVKVDPKTGKIVEITPSA [r9_122_TrROS_Hall] | 1.74 ± 0.06 kcal/mol |
| SAGGSAGGSAGGSNPVDIVEILSYDPEKNTYTFLVKLPDGSTKTITVPGLSVEEIKKELSAGGSAGGSAGGS [r4_357_JUSTAS] | 1.57 ± 0.083 kcal/mol |
| SAGGSAGGSAGGMMVNLKVTREKLPNGKYRVTFTLPNGEEVVVEVESEEEAEAAAKEIAASAGGSAGGSAGG [r11_955_JUSTAS] | 3.2 ± 0.053 kcal/mol |
| SAGSSPEEIAERLREEAERTEKLPDGSEVRVSVSVDVEVLPNGTVRLTIPRSYPETGVVTTETVTIPVASAG [r5_397_JUSTAS] | 0.0542 ± 0.11 kcal/mol |
| SAGLLEVLRKIAEELGWELTSVEVHELPDGSVVATGEFRKGDRTYRVDIRYDPETGRVEVRLEPVPVPESAG [r14_784_TrMRF] | 4.6 ± 0.22 kcal/mol |
| SMKIYKTKEEAEKAAKETGKKVIVIKKGMSLEELLELLKKLKGLKEGQKVILVIQNEDGETYVIVLEIKPSA [r9_314_TrROS_Hall] | 1.82 ± 0.099 kcal/mol |
| SAGGSAGGSMPTLRVKIEVTNPDGEKLELTITVPRDMTLEELKALAEELAKAGYEVRIVEVEPSAGGSAGGS [r12_804_TrROS_Hall] | 3.61 ± 0.15 kcal/mol |
| SAGGSAGGSAMKPGEVIEIEITDKETGKKIKAEIVLKDGKLYIKIYNENGELIAEIEIEIKDSAGGSAGGSA [r18_264_TrROS_Hall] | 2.83 ± 0.2 kcal/mol |
| SAGGSAGGSAGMVIEVGGKKVTIEKNEDGSLKITVTDKNGKKKEITIPGMSLEEILKALKSAGGSAGGSAGG [r11_934_TrROS_Hall] | 3.23 ± 0.076 kcal/mol |
| SAGGSAPLPPGAVVEIVEVRFDPETRRIEMVVKVYDANGELVATLRVELEFDPETNELTLRVELLPSAGGSA [r15_1028_TrROS_Hall] | 3.41 ± 0.24 kcal/mol |
| SAMDFPPGSTATIKVEVKNPDNTKTETYEIEVPVDPETGKAITLEDLKEALEKLGVNPENVKIVDIKVGSAG [r14_93_TrMRF] | 3.18 ± 0.22 kcal/mol |
